# According to the supplement of paper PMC9112550, “Optimization of the antimicrobial peptide Bac7 by deep mutational scanning” (BMC Biology, 2022):
# System: Escherichia coli TOP10
# Test: shrunken log2 fold change of peptide-encoding DNA abundance (4.5 h post-induction vs induction); higher = less antimicrobial activity (less host growth inhibition)
# Conditions: time post-induction: 4.5 h; library: site-saturation at positions 5, 18, 19, 20
# 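Note: peptides expressed intracellularly from a pBAD plasmid library in pooled LB shake-flask culture, induced with 0.3% L-arabinose, DNA abundance read by NGS, three biological replicates, DESeq2 with apeglm shrinkage.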
row,Sequence,shrunken log2 fold change
1,RRIRHRPPRLPRPRPRPHGCPRP,-0.0438
2,RRIRSRPPRLPRPRPRPLIRPRP,-0.196
3,RRIRHRPPRLPRPRPRPVMSPRP,-0.0285
4,RRIRNRPPRLPRPRPRPNQIPRP,-0.319
5,RRIRSRPPRLPRPRPRPHYFPRP,-0.51
6,RRIRKRPPRLPRPRPRPRVGPRP,0.279
7,RRIRWRPPRLPRPRPRPLNWPRP,0.101
8,RRIRFRPPRLPRPRPRPHALPRP,-0.222
9,RRIRARPPRLPRPRPRPGYHPRP,-0.14
10,RRIRWRPPRLPRPRPRPEAFPRP,0.488
11,RRIRCRPPRLPRPRPRPEECPRP,-0.0128
12,RRIRYRPPRLPRPRPRPGKNPRP,-0.13
13,RRIRARPPRLPRPRPRPVEKPRP,0.347
14,RRIRHRPPRLPRPRPRPANVPRP,-0.192
15,RRIRQRPPRLPRPRPRPCGNPRP,0.0751
16,RRIRQRPPRLPRPRPRPLHYPRP,-0.269
17,RRIRTRPPRLPRPRPRPHRLPRP,-0.387
18,RRIRFRPPRLPRPRPRPACTPRP,-0.148
19,RRIRIRPPRLPRPRPRPTNKPRP,-0.687
20,RRIRARPPRLPRPRPRPVLNPRP,-0.0316
21,RRIRQRPPRLPRPRPRPQIVPRP,-0.026
22,RRIRCRPPRLPRPRPRPYEGPRP,-0.103
23,RRIRKRPPRLPRPRPRPDVLPRP,0.0156
24,RRIRARPPRLPRPRPRPGHSPRP,-0.0933
25,RRIRRRPPRLPRPRPRPRVWPRP,0.686

row,Sequence,shrunken log2 fold change
1,RRIRGRPPRLPRPRPRPEHVPRP,0.0775
2,RRIRHRPPRLPRPRPRPWDPPRP,-0.243
3,RRIRNRPPRLPRPRPRPAHTPRP,0.121
4,RRIRYRPPRLPRPRPRPVDCPRP,-0.103
5,RRIRYRPPRLPRPRPRPIMQPRP,-0.107
6,RRIRWRPPRLPRPRPRPQFMPRP,-0.155
7,RRIRYRPPRLPRPRPRPYLTPRP,-0.305
8,RRIRCRPPRLPRPRPRPCEYPRP,-0.163
9,RRIRMRPPRLPRPRPRPTAFPRP,0.206
10,RRIRMRPPRLPRPRPRPMLSPRP,0.0117
11,RRIRHRPPRLPRPRPRPPIDPRP,0.065
12,RRIRNRPPRLPRPRPRPRKIPRP,0.39
13,RRIRNRPPRLPRPRPRPPLIPRP,-0.193
14,RRIRARPPRLPRPRPRPRWLPRP,0.68
15,RRIRPRPPRLPRPRPRPICTPRP,0.0424
16,RRIRERPPRLPRPRPRPEKAPRP,-0.0229
17,RRIRNRPPRLPRPRPRPLGEPRP,-0.0638
18,RRIRMRPPRLPRPRPRPVCAPRP,0.698
19,RRIRMRPPRLPRPRPRPVDVPRP,-0.163
20,RRIRRRPPRLPRPRPRPMSGPRP,0.0609
21,RRIRFRPPRLPRPRPRPYTHPRP,-0.532
22,RRIRGRPPRLPRPRPRPYDIPRP,-0.068
23,RRIRTRPPRLPRPRPRPMHPPRP,0.0402
24,RRIRFRPPRLPRPRPRPFFEPRP,0.0992
25,RRIRWRPPRLPRPRPRPAVIPRP,0.0266

row,Sequence,shrunken log2 fold change
1,RRIRSRPPRLPRPRPRPSRQPRP,-0.447
2,RRIRHRPPRLPRPRPRPELSPRP,0.252
3,RRIRRRPPRLPRPRPRPGTNPRP,0.0926
4,RRIRGRPPRLPRPRPRPTSKPRP,0.69
5,RRIRARPPRLPRPRPRPPNVPRP,0.109
6,RRIRMRPPRLPRPRPRPVNYPRP,-0.0244
7,RRIRMRPPRLPRPRPRPDFSPRP,0.0199
8,RRIRGRPPRLPRPRPRPWSSPRP,-0.0552
9,RRIRQRPPRLPRPRPRPRYCPRP,-0.143
10,RRIRFRPPRLPRPRPRPHMYPRP,-1.28
11,RRIRVRPPRLPRPRPRPDHQPRP,-0.00679
12,RRIRDRPPRLPRPRPRPWELPRP,0.18
13,RRIRMRPPRLPRPRPRPLGKPRP,0.0958
14,RRIRFRPPRLPRPRPRPRFDPRP,-0.248
15,RRIRCRPPRLPRPRPRPSYSPRP,-1.04
16,RRIRPRPPRLPRPRPRPSGMPRP,-0.183
17,RRIRWRPPRLPRPRPRPNEFPRP,-0.161
18,RRIRPRPPRLPRPRPRPQCCPRP,0.0723
19,RRIRIRPPRLPRPRPRPPRNPRP,0.217
20,RRIRRRPPRLPRPRPRPDHYPRP,-2.95
21,RRIRNRPPRLPRPRPRPMHQPRP,-0.19
22,RRIRHRPPRLPRPRPRPWINPRP,-0.616
23,RRIRHRPPRLPRPRPRPCFQPRP,-0.558
24,RRIRMRPPRLPRPRPRPGWVPRP,0.0878
25,RRIRCRPPRLPRPRPRPYVVPRP,0.0333

row,Sequence,shrunken log2 fold change
1,RRIRCRPPRLPRPRPRPAEGPRP,0.14
2,RRIRIRPPRLPRPRPRPLEEPRP,0.073
3,RRIRARPPRLPRPRPRPWYLPRP,-0.161
4,RRIRPRPPRLPRPRPRPGPYPRP,-0.0184
5,RRIRVRPPRLPRPRPRPMMRPRP,0.837
6,RRIRLRPPRLPRPRPRPHEMPRP,-0.377
7,RRIRTRPPRLPRPRPRPLEIPRP,0.554
8,RRIRPRPPRLPRPRPRPKLAPRP,0.405
9,RRIRMRPPRLPRPRPRPQNNPRP,-0.13
10,RRIRNRPPRLPRPRPRPRLQPRP,0.0236
11,RRIRVRPPRLPRPRPRPYQQPRP,-0.323
12,RRIRMRPPRLPRPRPRPTQYPRP,0.248
13,RRIRMRPPRLPRPRPRPYWKPRP,0.0275
14,RRIRFRPPRLPRPRPRPLYHPRP,-0.859
15,RRIRFRPPRLPRPRPRPPVTPRP,-0.132
16,RRIRNRPPRLPRPRPRPSIWPRP,-0.474
17,RRIRDRPPRLPRPRPRPRMNPRP,-0.168
18,RRIRVRPPRLPRPRPRPFMGPRP,-0.334
19,RRIRLRPPRLPRPRPRPPWFPRP,0.165
20,RRIRSRPPRLPRPRPRPFYRPRP,-0.271
21,RRIRTRPPRLPRPRPRPGQAPRP,-0.228
22,RRIRQRPPRLPRPRPRPQISPRP,-0.159
23,RRIRHRPPRLPRPRPRPHCHPRP,-0.551
24,RRIRRRPPRLPRPRPRPLPYPRP,-0.0149
25,RRIRPRPPRLPRPRPRPPNKPRP,0.139

row,Sequence,shrunken log2 fold change
1,RRIRFRPPRLPRPRPRPTFCPRP,-0.152
2,RRIRHRPPRLPRPRPRPSFCPRP,-0.507
3,RRIRQRPPRLPRPRPRPDQEPRP,0.0119
4,RRIRVRPPRLPRPRPRPPSSPRP,0.275
5,RRIRRRPPRLPRPRPRPEQEPRP,0.0308
6,RRIRIRPPRLPRPRPRPHSAPRP,-0.143
7,RRIRPRPPRLPRPRPRPTHSPRP,0.185
8,RRIRSRPPRLPRPRPRPVPWPRP,0.212
9,RRIRVRPPRLPRPRPRPHPVPRP,-0.201
10,RRIRPRPPRLPRPRPRPSLYPRP,-0.326
11,RRIRNRPPRLPRPRPRPSFCPRP,-0.548
12,RRIRQRPPRLPRPRPRPEQAPRP,0.378
13,RRIRYRPPRLPRPRPRPLRPPRP,0.786
14,RRIRMRPPRLPRPRPRPYSNPRP,-0.834
15,RRIRFRPPRLPRPRPRPSHAPRP,-0.149
16,RRIRWRPPRLPRPRPRPRYDPRP,-0.248
17,RRIRVRPPRLPRPRPRPNRVPRP,0.0523
18,RRIRHRPPRLPRPRPRPFKEPRP,-0.289
19,RRIRSRPPRLPRPRPRPIVEPRP,1.56
20,RRIRLRPPRLPRPRPRPWAKPRP,0.173
21,RRIRPRPPRLPRPRPRPFILPRP,-0.582
22,RRIRSRPPRLPRPRPRPASMPRP,0.0141
23,RRIRHRPPRLPRPRPRPVSEPRP,-0.254
24,RRIRRRPPRLPRPRPRPPGNPRP,0.428
25,RRIRPRPPRLPRPRPRPGYYPRP,-0.45

row,Sequence,shrunken log2 fold change
1,RRIRPRPPRLPRPRPRPKVMPRP,0.294
2,RRIRNRPPRLPRPRPRPTKNPRP,-0.0348
3,RRIRPRPPRLPRPRPRPGCIPRP,-0.0111
4,RRIRGRPPRLPRPRPRPTTSPRP,1.11
5,RRIRKRPPRLPRPRPRPSKLPRP,0.0104
6,RRIRHRPPRLPRPRPRPHTWPRP,-0.301
7,RRIRVRPPRLPRPRPRPVTRPRP,0.0259
8,RRIRVRPPRLPRPRPRPYMLPRP,-0.71
9,RRIRQRPPRLPRPRPRPRCYPRP,0.0331
10,RRIRDRPPRLPRPRPRPPFLPRP,0.0487
11,RRIRYRPPRLPRPRPRPFNLPRP,-0.271
12,RRIRRRPPRLPRPRPRPCNTPRP,-0.295
13,RRIRIRPPRLPRPRPRPAQVPRP,-0.00946
14,RRIRPRPPRLPRPRPRPGKLPRP,-0.4
15,RRIRSRPPRLPRPRPRPKGKPRP,0.0401
16,RRIRARPPRLPRPRPRPTYNPRP,-0.121
17,RRIRKRPPRLPRPRPRPRRPPRP,0.544
18,RRIRRRPPRLPRPRPRPGERPRP,0.0829
19,RRIRGRPPRLPRPRPRPMSEPRP,0.286
20,RRIRCRPPRLPRPRPRPTITPRP,-0.44
21,RRIRTRPPRLPRPRPRPFMVPRP,-0.291
22,RRIRERPPRLPRPRPRPKLWPRP,0.582
23,RRIRPRPPRLPRPRPRPHDNPRP,-0.347
24,RRIRNRPPRLPRPRPRPIISPRP,0.0108
25,RRIRSRPPRLPRPRPRPTAYPRP,-0.00955
